Starred links: 1 amine or outer side, 2 acyl side, 3 side chain; linkers in the order of their positions; H or OH if unused. Non-standard residues stand in square brackets, D forms with d. Groups on a side chain read outwards from the residue. No end group written: not given here. *: point of attachment. C18 diacid = O=C(O)CCCCCCCCCCCCCCCCC(=O)*; γGlu = O=C(O)[C@H](CCC(=O)[*:2])N[*:1]; εLys = N[C@@H](CCCCN[*:1])C(=O)[*:2]; AEEA = NCCOCCOCC(=O)O; Aib = CC(C)(N)C(=O)O
T1: human GIP receptor (human, UniProt P48546 22-466)
T1 sequence (looked up): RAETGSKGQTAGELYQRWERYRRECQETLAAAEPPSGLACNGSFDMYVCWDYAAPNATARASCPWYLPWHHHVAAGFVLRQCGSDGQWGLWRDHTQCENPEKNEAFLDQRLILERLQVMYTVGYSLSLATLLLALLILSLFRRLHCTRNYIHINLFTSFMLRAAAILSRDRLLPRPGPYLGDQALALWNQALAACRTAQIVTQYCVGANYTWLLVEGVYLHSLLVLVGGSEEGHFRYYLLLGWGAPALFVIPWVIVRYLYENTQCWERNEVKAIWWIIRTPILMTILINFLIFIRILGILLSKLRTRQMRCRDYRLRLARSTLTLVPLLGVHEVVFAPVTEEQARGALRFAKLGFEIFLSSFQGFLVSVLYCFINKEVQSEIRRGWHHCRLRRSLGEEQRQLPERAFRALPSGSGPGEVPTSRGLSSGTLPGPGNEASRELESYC

B1: Compound No. 32 (peptide)
peptide: Y[Aib]EGTFTSDYSILLEK([AEEA-AEEA-γGlu-C18 diacid])QAAREFIEWLLAGGPSSGAPPPS-OH
modifications: N-terminus assumed
SMILES: CC[C@H](C)[C@H](NC(=O)[C@H](Cc1ccccc1)NC(=O)[C@H](CCC(=O)O)NC(=O)[C@H](CCCNC(=N)N)NC(=O)[C@H](C)NC(=O)[C@H](C)NC(=O)[C@H](CCC(N)=O)NC(=O)[C@H](CCCCNC(=O)COCCOCCNC(=O)COCCOCCNC(=O)CC[C@H](NC(=O)CCCCCCCCCCCCCCCCC(=O)O)C(=O)O)NC(=O)[C@H](CCC(=O)O)NC(=O)[C@H](CC(C)C)NC(=O)[C@H](CC(C)C)NC(=O)[C@@H](NC(=O)[C@H](CO)NC(=O)[C@H](Cc1ccc(O)cc1)NC(=O)[C@H](CC(=O)O)NC(=O)[C@H](CO)NC(=O)[C@@H](NC(=O)[C@H](Cc1ccccc1)NC(=O)[C@@H](NC(=O)CNC(=O)[C@H](CCC(=O)O)NC(=O)C(C)(C)NC(=O)[C@@H](N)Cc1ccc(O)cc1)[C@@H](C)O)[C@@H](C)O)[C@@H](C)CC)C(=O)N[C@@H](CCC(=O)O)C(=O)N[C@@H](Cc1c[nH]c2ccccc12)C(=O)N[C@@H](CC(C)C)C(=O)N[C@@H](CC(C)C)C(=O)N[C@@H](C)C(=O)NCC(=O)NCC(=O)N1CCC[C@H]1C(=O)N[C@@H](CO)C(=O)N[C@@H](CO)C(=O)NCC(=O)N[C@@H](C)C(=O)N1CCC[C@H]1C(=O)N1CCC[C@H]1C(=O)N1CCC[C@H]1C(=O)N[C@@H](CO)C(=O)O
B2: Compound No. 43 (peptide)
peptide: Y[Aib]EGTFTSDYSILLEEQAAREFIEWLLAGGPSK([εLys-εLys-γGlu-C18 diacid])GAPPPS-OH
modifications: N-terminus assumed
SMILES: CC[C@H](C)[C@H](NC(=O)[C@H](Cc1ccccc1)NC(=O)[C@H](CCC(=O)O)NC(=O)[C@H](CCCNC(=N)N)NC(=O)[C@H](C)NC(=O)[C@H](C)NC(=O)[C@H](CCC(N)=O)NC(=O)[C@H](CCC(=O)O)NC(=O)[C@H](CCC(=O)O)NC(=O)[C@H](CC(C)C)NC(=O)[C@H](CC(C)C)NC(=O)[C@@H](NC(=O)[C@H](CO)NC(=O)[C@H](Cc1ccc(O)cc1)NC(=O)[C@H](CC(=O)O)NC(=O)[C@H](CO)NC(=O)[C@@H](NC(=O)[C@H](Cc1ccccc1)NC(=O)[C@@H](NC(=O)CNC(=O)[C@H](CCC(=O)O)NC(=O)C(C)(C)NC(=O)[C@@H](N)Cc1ccc(O)cc1)[C@@H](C)O)[C@@H](C)O)[C@@H](C)CC)C(=O)N[C@@H](CCC(=O)O)C(=O)N[C@@H](Cc1c[nH]c2ccccc12)C(=O)N[C@@H](CC(C)C)C(=O)N[C@@H](CC(C)C)C(=O)N[C@@H](C)C(=O)NCC(=O)NCC(=O)N1CCC[C@H]1C(=O)N[C@@H](CO)C(=O)N[C@@H](CCCCNC(=O)[C@@H](N)CCCCNC(=O)[C@@H](N)CCCCNC(=O)CC[C@H](NC(=O)CCCCCCCCCCCCCCCCC(=O)O)C(=O)O)C(=O)NCC(=O)N[C@@H](C)C(=O)N1CCC[C@H]1C(=O)N1CCC[C@H]1C(=O)N1CCC[C@H]1C(=O)N[C@@H](CO)C(=O)O
B3: Compound No. 44 (peptide)
peptide: Y[Aib]EGTFTSDYSILLEEQAAREFINWLLAGGPSK([εLys-εLys-γGlu-C18 diacid])GAPPPS-OH
modifications: N-terminus assumed
SMILES: CC[C@H](C)[C@H](NC(=O)[C@H](Cc1ccccc1)NC(=O)[C@H](CCC(=O)O)NC(=O)[C@H](CCCNC(=N)N)NC(=O)[C@H](C)NC(=O)[C@H](C)NC(=O)[C@H](CCC(N)=O)NC(=O)[C@H](CCC(=O)O)NC(=O)[C@H](CCC(=O)O)NC(=O)[C@H](CC(C)C)NC(=O)[C@H](CC(C)C)NC(=O)[C@@H](NC(=O)[C@H](CO)NC(=O)[C@H](Cc1ccc(O)cc1)NC(=O)[C@H](CC(=O)O)NC(=O)[C@H](CO)NC(=O)[C@@H](NC(=O)[C@H](Cc1ccccc1)NC(=O)[C@@H](NC(=O)CNC(=O)[C@H](CCC(=O)O)NC(=O)C(C)(C)NC(=O)[C@@H](N)Cc1ccc(O)cc1)[C@@H](C)O)[C@@H](C)O)[C@@H](C)CC)C(=O)N[C@@H](CC(N)=O)C(=O)N[C@@H](Cc1c[nH]c2ccccc12)C(=O)N[C@@H](CC(C)C)C(=O)N[C@@H](CC(C)C)C(=O)N[C@@H](C)C(=O)NCC(=O)NCC(=O)N1CCC[C@H]1C(=O)N[C@@H](CO)C(=O)N[C@@H](CCCCNC(=O)[C@@H](N)CCCCNC(=O)[C@@H](N)CCCCNC(=O)CC[C@H](NC(=O)CCCCCCCCCCCCCCCCC(=O)O)C(=O)O)C(=O)NCC(=O)N[C@@H](C)C(=O)N1CCC[C@H]1C(=O)N1CCC[C@H]1C(=O)N1CCC[C@H]1C(=O)N[C@@H](CO)C(=O)O
B4: Compound No. 40 (peptide)
peptide: Y[Aib]EGTFTSDYSK([εLys-εLys-γGlu-C18 diacid])LLEEQAAREFIEWLLAGGPSSGAPPPS-OH
modifications: N-terminus assumed
SMILES: CC[C@H](C)[C@H](NC(=O)[C@H](Cc1ccccc1)NC(=O)[C@H](CCC(=O)O)NC(=O)[C@H](CCCNC(=N)N)NC(=O)[C@H](C)NC(=O)[C@H](C)NC(=O)[C@H](CCC(N)=O)NC(=O)[C@H](CCC(=O)O)NC(=O)[C@H](CCC(=O)O)NC(=O)[C@H](CC(C)C)NC(=O)[C@H](CC(C)C)NC(=O)[C@H](CCCCNC(=O)[C@@H](N)CCCCNC(=O)[C@@H](N)CCCCNC(=O)CC[C@H](NC(=O)CCCCCCCCCCCCCCCCC(=O)O)C(=O)O)NC(=O)[C@H](CO)NC(=O)[C@H](Cc1ccc(O)cc1)NC(=O)[C@H](CC(=O)O)NC(=O)[C@H](CO)NC(=O)[C@@H](NC(=O)[C@H](Cc1ccccc1)NC(=O)[C@@H](NC(=O)CNC(=O)[C@H](CCC(=O)O)NC(=O)C(C)(C)NC(=O)[C@@H](N)Cc1ccc(O)cc1)[C@@H](C)O)[C@@H](C)O)C(=O)N[C@@H](CCC(=O)O)C(=O)N[C@@H](Cc1c[nH]c2ccccc12)C(=O)N[C@@H](CC(C)C)C(=O)N[C@@H](CC(C)C)C(=O)N[C@@H](C)C(=O)NCC(=O)NCC(=O)N1CCC[C@H]1C(=O)N[C@@H](CO)C(=O)N[C@@H](CO)C(=O)NCC(=O)N[C@@H](C)C(=O)N1CCC[C@H]1C(=O)N1CCC[C@H]1C(=O)N1CCC[C@H]1C(=O)N[C@@H](CO)C(=O)O
B5: Compound No. 31 (peptide)
peptide: Y[Aib]EGTFTSDYSILLEK([εLys-εLys-γGlu-C18 diacid])QAAREFIEWLLAGGPSSGAPPPS-OH
modifications: N-terminus assumed
SMILES: CC[C@H](C)[C@H](NC(=O)[C@H](Cc1ccccc1)NC(=O)[C@H](CCC(=O)O)NC(=O)[C@H](CCCNC(=N)N)NC(=O)[C@H](C)NC(=O)[C@H](C)NC(=O)[C@H](CCC(N)=O)NC(=O)[C@H](CCCCNC(=O)[C@@H](N)CCCCNC(=O)[C@@H](N)CCCCNC(=O)CC[C@H](NC(=O)CCCCCCCCCCCCCCCCC(=O)O)C(=O)O)NC(=O)[C@H](CCC(=O)O)NC(=O)[C@H](CC(C)C)NC(=O)[C@H](CC(C)C)NC(=O)[C@@H](NC(=O)[C@H](CO)NC(=O)[C@H](Cc1ccc(O)cc1)NC(=O)[C@H](CC(=O)O)NC(=O)[C@H](CO)NC(=O)[C@@H](NC(=O)[C@H](Cc1ccccc1)NC(=O)[C@@H](NC(=O)CNC(=O)[C@H](CCC(=O)O)NC(=O)C(C)(C)NC(=O)[C@@H](N)Cc1ccc(O)cc1)[C@@H](C)O)[C@@H](C)O)[C@@H](C)CC)C(=O)N[C@@H](CCC(=O)O)C(=O)N[C@@H](Cc1c[nH]c2ccccc12)C(=O)N[C@@H](CC(C)C)C(=O)N[C@@H](CC(C)C)C(=O)N[C@@H](C)C(=O)NCC(=O)NCC(=O)N1CCC[C@H]1C(=O)N[C@@H](CO)C(=O)N[C@@H](CO)C(=O)NCC(=O)N[C@@H](C)C(=O)N1CCC[C@H]1C(=O)N1CCC[C@H]1C(=O)N1CCC[C@H]1C(=O)N[C@@H](CO)C(=O)O

Target: T1, human GIP receptor
Test: cell-based or functional assay

Binder	hGIPR, CRE Luc 0% HSA EC50 (pM)	hGIPR, CRE Luc 1% HSA EC50 (pM)
B1	7.1 pM	679 pM
B2	5.6 pM	444 pM
B3	5.7 pM	365 pM
B4	9.5 pM	501 pM
B5	4.7 pM	188 pM

Target: human GLP-1 receptor (human, UniProt P43220 24-463)
Test: cell-based or functional assay

Binder	hGLP-1R, CRE Luc 0% HSA EC50 (pM)	hGLP-1R, CRE Luc 1% HSA EC50 (pM)
B1	5 pM	982 pM
B2	4 pM	360 pM
B3	4.2 pM	241 pM
B4	6.4 pM	334 pM
B5	4.2 pM	202 pM
